How the values were obtained:
[1] = biological target: Lis1 with N-terminal HaloTag (UniProt P43034); assay: pull-down; depletion of dynein from solution by Lis1 (0-600 nM) coupled to magnetic beads via its N-terminal HaloTag; SDS-PAGE densitometry of the supernatant; one-site fit with Bmax set to 1
[2] = biological target: Full-length phosphomimetic Ndel1 (S198D; T219D; S231D; S242D) with N-terminal HaloTag and C-terminal 6X-His tag (UniProt Q9GZM8); assay: pull-down; depletion of 5 nM dynein from solution by Ndel1 (0-600 nM) coupled to Magne HaloTag beads; 45 min; binding buffer 30 mM Hepes pH 7.4, 2 mM magnesium acetate, 1 mM EGTA, 10% glycerol, 1 mM DTT, 1 mg/ml casein, 0.1% NP-40, 1 mM ADP, 36 mM KCl; SDS-PAGE densitometry of the supernatant; one-site fit with Bmax set to 1
[3] = biological target: Ndel1 with the C-terminal coiled coil (256-291) deleted, N-terminal HaloTag and C-terminal 6X-His tag (UniProt Q9GZM8); assay: as above
[4] = biological target: N-terminal coiled coil of Ndel1 (1-192) with N-terminal HaloTag and C-terminal 6X-His tag (UniProt Q9GZM8); assay: as above
[5] = biological target: Full-length Ndel1 with N-terminal HaloTag and C-terminal 6X-His tag (UniProt Q9GZM8); assay: as above
Chain of Full-length Ndel1 with N-terminal HaloTag and C-terminal 6X-His tag (Q9GZM8 whole entry): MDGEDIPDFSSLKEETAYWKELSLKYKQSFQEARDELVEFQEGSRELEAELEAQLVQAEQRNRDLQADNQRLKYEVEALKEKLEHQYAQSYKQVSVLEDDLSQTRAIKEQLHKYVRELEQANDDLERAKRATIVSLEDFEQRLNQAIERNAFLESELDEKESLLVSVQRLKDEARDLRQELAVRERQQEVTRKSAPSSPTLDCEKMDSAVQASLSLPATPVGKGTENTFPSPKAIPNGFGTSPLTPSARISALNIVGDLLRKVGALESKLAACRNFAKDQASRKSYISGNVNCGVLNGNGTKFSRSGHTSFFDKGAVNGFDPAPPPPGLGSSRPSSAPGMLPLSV

Chain of Full-length phosphomimetic Ndel1 (S198D; T219D; S231D; S242D) with N-terminal HaloTag and C-terminal 6X-His tag (Q9GZM8 whole entry S198D/T219D/S231D/S242D): as the sequence (Q9GZM8 whole entry) above, with S198D, T219D, S231D, S242D counted along it
Chain of Ndel1 with the C-terminal coiled coil (256-291) deleted, N-terminal HaloTag and C-terminal 6X-His tag (Q9GZM8 other isoform, or with tags, fused parts or gaps): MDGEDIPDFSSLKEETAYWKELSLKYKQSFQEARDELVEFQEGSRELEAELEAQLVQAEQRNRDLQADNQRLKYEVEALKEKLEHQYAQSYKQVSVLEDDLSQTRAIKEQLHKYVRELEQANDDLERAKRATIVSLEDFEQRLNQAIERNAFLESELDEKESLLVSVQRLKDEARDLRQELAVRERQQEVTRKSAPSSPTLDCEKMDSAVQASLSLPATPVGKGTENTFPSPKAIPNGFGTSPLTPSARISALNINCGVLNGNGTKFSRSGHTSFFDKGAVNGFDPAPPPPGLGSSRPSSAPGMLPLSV
Chain of N-terminal coiled coil of Ndel1 (1-192) with N-terminal HaloTag and C-terminal 6X-His tag (Q9GZM8 1-192): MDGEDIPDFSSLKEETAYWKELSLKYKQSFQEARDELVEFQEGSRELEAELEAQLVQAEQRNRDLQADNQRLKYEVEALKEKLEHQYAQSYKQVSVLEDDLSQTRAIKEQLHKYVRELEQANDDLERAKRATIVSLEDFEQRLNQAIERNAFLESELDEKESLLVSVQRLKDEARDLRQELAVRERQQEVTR
Chain of Lis1 with N-terminal HaloTag (P43034 whole entry): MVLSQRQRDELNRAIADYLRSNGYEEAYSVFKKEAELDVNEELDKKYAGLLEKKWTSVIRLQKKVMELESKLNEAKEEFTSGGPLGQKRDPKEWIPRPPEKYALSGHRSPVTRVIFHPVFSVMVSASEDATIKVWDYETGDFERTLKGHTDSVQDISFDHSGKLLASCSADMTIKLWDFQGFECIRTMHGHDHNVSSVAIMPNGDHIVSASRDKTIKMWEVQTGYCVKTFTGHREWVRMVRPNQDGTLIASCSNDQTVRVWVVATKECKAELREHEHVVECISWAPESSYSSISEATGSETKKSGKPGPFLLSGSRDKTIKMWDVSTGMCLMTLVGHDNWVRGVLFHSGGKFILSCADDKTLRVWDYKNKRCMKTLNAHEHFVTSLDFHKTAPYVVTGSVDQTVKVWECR

SNAP-tagged, recombinant full-length human cytoplasmic dynein-1 with all associated accessory chains (from UniProt Q14204 1-4646; O43237 1-492; P63172 1-113; Q9NP97 1-96; P63167 1-89) (complex)
Kd [1]: 101 nM
Kd [2]: 15.8 nM
Kd [3]: 55.1 nM
Kd [4]: 79.3 nM
Kd [5]: 32.8 nM
